# Measured values taken from patent US9605064B2, “Methods and compositions for treatment of skin disorders” (AbbVie Biotechnology Ltd, priority 2006, dated 2017).
# Several values for one entry are separate records, joined by “and”; a condition that tells them apart may be missing. Equal entries are not always repeated. Marks after values point to notes of the source that are not given here.
# Tests used:
# [1] = system: patients with severe psoriasis who were non-responders to high-dosage etanercept; experiment: PASI response, open-label adalimumab in non-responders to high-dosage etanercept; assay type: in vivo, human
# Procedure: Details on clinical course and adverse events were recorded, along with measurements of PASI and Dermatology Life Quality Index (DLQI) at baseline and Weeks 2, 4, 8, and 12.
# This was an open-label prospective evaluation of adalimumab (HUMIRA®, Abbott Laboratories, Abbott Park, Ill., USA). Patients who were non-responders to etanercept were recruited from the Severe Psoriasis Clinic at St John's Institute of Dermatology in London. […] Inclusion criteria included male and female patients more than 18 years of age with plaque psoriasis (Table 98). The study was approved by St Thomas' Research Ethics Committee, and informed consent was obtained from all participants.
# The study period was 12 weeks. […] Patients were able to withdraw from the study at any stage. They were permitted to continue topical treatments at stable dosages throughout the study, but could not use concomitant systemic therapy for psoriasis.
# At each clinical visit PASI, DLQI, and percentage body surface area (% BSA) affected were assessed and recorded. In addition, patients received medical assessments together with monitoring laboratory investigations (FIG. 11).
# The secondary efficacy endpoint was PASI 75 response rate at Week 12.
# [2] = system: patients with moderate to severe plaque psoriasis; experiment: Adverse events and laboratory abnormalities, 12-week open-label weekly therapy then randomized eow or withdrawal
# [3] = Adalimumab serum concentrations by ELISA, Phase II trial; assay type: in vivo, human; details: for steady-state concentration: 40 mg eow dosing; for mean adalimumab serum concentration: 80 mg at Week 0 and 40 mg at Week 1
# [4] = system: patients with moderate to severe chronic plaque psoriasis; experiment: PGA, CHAMPION 16-week Phase III trial; assay type: in vivo, human; details: ITT, missing PGA = not achieving
# Procedure: Analytical methods included the following: • Intention-to-treat analyses were performed for all randomized patients • Missing data were analyzed using non-responder imputation (NRI) • PASI 75 at Week 16 (primary endpoint) was analyzed using adjusted Cochran-Mantel-Haenszel test.
# [5] = Double-blind period Weeks 12-24, 40 mg eow (N = 68)
# [6] = Open-label period Weeks 0-11, 40 mg weekly (N = 148)
substance,measurement,setting,value
"Adalimumab: a human anti-TNF mAb, described in U.S. Pat. No. 6,090,382 as D2E7 (HUMIRA, Abbott Laboratories)",patients who achieved at least PASI 50,"[1]; 40 mg weekly, Week 12",80%
same,PASI 50 response,[1]; Patient 1,non-responder
same,time at which PASI 50 was achieved,[1]; Patient 2,≤ 8 Week
same,time at which PASI 75 was reached,[1]; Patient 2,12 Week
same,time at which PASI 50 was achieved,[1]; Patient 3,≤ 4 Week
same,time at which PASI 50 was achieved,[1]; Patient 4,≤ 2 Week
same,time at which PASI 75 was reached,[1]; Patient 4,4 Week
same,time at which PASI 50 was achieved,[1]; Patient 5,≤ 12 Week
same,PASI,"[1]; Week 2, individual patients 1-5 (c1-c5), weekly adalimumab",23.4 and 23.6 and 21.6 and 11.2 and 22.9
same,PASI,"[1]; Week 4, individual patients 1-5 (c1-c5), weekly adalimumab",26.7 and 20.1 and 8.70 and 7.00 and 23.6
same,PASI,"[1]; Week 8, individual patients 1-5 (c1-c5), weekly adalimumab",18.2 and 12.3 and 8.40 and 19.6
same,PASI,"[1]; Week 12, individual patients 1-5 (c1-c5), weekly adalimumab",21.2 and 6.30 and 3.3 and 7.10 and 15.2
same,% Improvement in PASI from baseline to Week 12,"[1]; individual patients 1-5 (c1-c5), weekly adalimumab",6% and 82% and 93% and 52% and 53%
same,patients with serious adverse events,[2]; 24-week trial,Four patients
same,"tuberculosis or other opportunistic infections, lymphoma, melanoma, other malignancies, demyelinating disorders, lupus-like syndromes, congestive heart failure",[2]; 24-week trial,No patients developed
same,Any AE,[2]; [5],46 (67.6) n (%)
same,Any AEs leading to discontinuation,[2]; [5],2 (2.9) n (%)
same,Any SAE,[2]; [5],2 (2.9) n (%)
same,Arthralgia,[2]; [5],5 (7.4) n (%)
same,Headache,[2]; [5],1 (1.5) n (%)
same,Injection site reaction,[2]; [5],4 (5.9) n (%)
same,Nasopharyngitis,[2]; [5],3 (4.4) n (%)
same,Any AE,[2]; [6],105 (70.9) n (%)
same,Any AEs leading to discontinuation,[2]; [6],1 (0.7) n (%)
same,Any SAE,[2]; [6],2 (1.4) n (%)
same,Arthralgia,[2]; [6],4 (2.7) n (%)
same,Headache,[2]; [6],11 (7.4) n (%)
same,Injection site reaction,[2]; [6],17 (11.5) n (%)
same,Nasopharyngitis,[2]; [6],11 (7.4) n (%)
same,ALT elevation greater than 2.5 times the upper limit of normal,[2]; Week 12,No patients
same,ALT elevation greater than 2.5 times the upper limit of normal,"[2]; adalimumab eow group, Week 24",One patient
same,arthralgias,"[2]; adalimumab eow group, Weeks 12-24",7.4%
same,patients who withdrew because of an adverse event,[2]; of the 148 patients who received at least one dose,three
same,rebound (pre-specified definition),[2]; three patients classified by investigators as rebounders,None of the three patients met the study's pre-specified definition of rebound
same,steady-state concentration,[3]; Week 11,6.0 µg/mL
same,steady-state concentration,[3]; Week 12,6.9 µg/mL
same,mean adalimumab serum concentration,[3]; Week 1,6.0 µg/mL
same,mean adalimumab serum concentration,[3]; Week 2,8.8 µg/mL
same,"PGA “Clear” or “Minimal” Responses, % Patients",[4]; Week 4,7*† %
same,"PGA “Clear” or “Minimal” Responses, % Patients",[4]; Week 8,27‡§ %
same,"PGA “Clear” or “Minimal” Responses, % Patients",[4]; Week 12,48‡§ %
same,"PGA “Clear” or “Minimal” Responses, % Patients",[4]; Week 16,52‡§ %
